Assay results taken from patent US20120058537A1.

Legend:
[1] = molecular target: chimeric truncated and mutant variant of t-PA (truncated-mutant t-PA, KHRR 128-131 substituted with AAAA) (human) (UniProt P00750); experiment: cell-based or functional assay
[2] = molecular target: full length t-PA (tissue-type plasminogen activator), commercially available t-PA, Actylase (human) (UniProt P00750); experiment: cell-based or functional assay
[3] = molecular target: fibrin clots (formed from fibrinogen with bovine thrombin); experiment: fibrin clot binding at 0.2 mg/mL fibrinogen; bound = total minus free enzyme in the supernatant
[4] = molecular target: fibrin clots (formed from fibrinogen with bovine thrombin); experiment: fibrin clot binding at 0.3 mg/mL fibrinogen; bound = total minus free enzyme in the supernatant
[5] = molecular target: fibrin clots (formed from fibrinogen with bovine thrombin); experiment: fibrin clot binding; ratio against full length t-PA

Row | Substance | residual activity after inhibition by rPAI-1 [1] [%] | residual activity after inhibition by rPAI-1 [2] [%] | fibrin affinity (percent of enzyme bound to fibrin clot) [3] [%] | fibrin affinity (percent of enzyme bound to fibrin clot) [4] [%] | fibrin affinity relative to full length t-PA (set to 100%) [5] [%]
1 | human rPAI-1 (recombinant plasminogen activator inhibitor-1) (from UniProt P05121 24-402) | 85 | 65 | – | – | –
2 | full length t-PA (tissue-type plasminogen activator), commercially available t-PA, Actylase (from UniProt P00750 36-562) (enzyme) | – | – | 44 | 53 | –
3 | chimeric truncated t-PA (GHRP-SYQ-K2S) (from UniProt P00750 211-562) (enzyme) | – | – | 38 | 46 | 86
